Results reported in patent US8728754B1, “Use of proteins isolated from Pseudomonas to control molluscs” (priority 2013, dated 2014).

System: mussels
Experiment: Mussel bioassay in scintillation vials
Format: in vivo
Method: Mussel bioassays were performed in twenty milliliter scintillation vials. Ten small mussels (approximately 1 cm long) were incubated in the mussel water (10 mL) for 24 hr first, then the mussel water (10 mL) was changed freshly before test cell lysis was added. Cell lysis or proteins (maximal 500 μL) was added into each vial. After 24 hr, the mussel water with cell lysis or proteins was changed with clean mussel water. Then, mussel water was changed every 24 hr with clean mussel water. Dead mussels were taken away every day and mussel mortality was calculated by number of dead mussel divided by the number of total mussels.

B1: dihydrolipoamide dehydrogenase (protein, UniProt P14218 2-478, looked up)
Dihydrolipoyl dehydrogenase: SQKFDVVVIGAGPGGYVAAIRAAQLGLKTACIEKYIGKEGKVALGGTCLNVGCIPSKALLDSSYKYHEAKEAFKVHGIEAKGVTIDVPAMVARKANIVKNLTGGIATLFKANGVTSFEGHGKLLANKQVEVTGLDGKTQVLEAENVIIASGSRPVEIPPAPLSDDIIVDSTGALEFQAVPKKLGVIGAGVIGLELGSVWARLGAEVTVLEALDKFLPAADEQIAKEALKVLTKQGLNIRLGARVTASEVKKKQVTVTFTDANGEQKETFDKLIVAVGRRPVTTDLLAADSGVTLDERGFIYVDDHCKTSVPGVFAIGDVVRGAMLAHKASEEGVMVAERIAGHKAQMNYDLIPSVIYTHPEIAWVGKTEQTLKAEGVEVNVGTFPFAASGRAMAANDTTGLVKVIADAKTDRVLGVHVIGPSAAELVQQGAIGMEFGTSAEDLGMMVFSHPTLSEALHEAALAVNGHAIHIANRKKR
notes: Molluscicidal protein isolated from Pseudomonas CL145A, identified as dihydrolipoamide dehydrogenase
Mussel mortality at 7th day (5 ppm, 7th day): 50% | Activity in mussel bioassay of proteins and fractions dosed after gel analysis (in vivo): active
